The target in assay [1] is GCN4-p2L variant (trimeric variant of GCN4 peptide with N-terminal NTA and C-terminal His2), assembled into hexagonal 3D crystals with Zn2+. Kind of assay: derived from the EDTA dissolution data and the hourglass volume (about 50%).
The target is the same in assay [2]. Kind of assay: crystals dissolved with EDTA; peptide by UPLC, protein by fluorescence spectroscopy.

In assay [1], “Enhanced green fluorescent protein with an N-terminal His6-tag (EGFP)” registered a coiled-coils for each protein guest within the hourglass section (coiled-coils per protein) of 30 to 35. In assay [2], the coiled-coil units for each protein guest (coiled-coil units per protein) is 60 to 70 and the ratio of peptide to protein cargo in the crystals (peptide : protein) was found to be 200.

For the origin of these results see patent publication US20240075152A1.
